Reference: patent publication US20250304644A1, “PEPTIDES TRIPLE AGONISTS OF GIP, GLP-1 AND GLP-2” (BAINAN BIOTECH APS, priority 2021, published 2025)
Numbering of substitutions follows the chain as printed. Where a SMILES comes first, the peptide text is derived from it. Where no end group is shown, it is not given here. [ ]: non-standard residue; d: D form. The star is where a group is joined. Decanoyl = CCCCCCCCCC(=O)*; Aib = CC(C)(N)C(=O)O

Experiments:
[1] = target: T1, human GLP-1R (Homo sapiens, UniProt P43220); experiment: cAMP assay (HitHunter) in transiently transfected COS-7 cells expressing human GLP-1R; assay type: cell-based; conditions: COS-7; normalized to highest concentration of the endogenous ligand; read-out: Efficacy GLP-1R (Emax)
T1 construct: host or cells: COS-7
Description: (§1) The next day the assay was initiated by washing with HEPES buffered saline (HBS) and followed by an incubation step with assay buffer (HBS added 1 mM isobutyl-1-methylxanthine (IBMX)) for 30 min at 37° C. The ligands were then added and incubated for an additional 30 min at 37° C. After ligand incubation, the HitHunter® CAMP assay (Eurofins DiscoverX, Fremont, […] USA) was carried out according to the manufacturer's instructions. […] The potencies (EC50 values) were determined by nonlinear regression using GraphPad Prism 9 (San Diego, California, USA). Sigmoid curves were fitted logistically. The efficacies (Emax values) were determined by normalization to the highest concentration applied of the endogenous ligand for each receptor.

[2] = target: T2, human GIPR (Homo sapiens, UniProt P48546); experiment: cAMP assay (HitHunter) in transiently transfected COS-7 cells expressing human GIPR; assay type: cell-based
T2 construct: host or cells: COS-7
T2 sequence (P48546 22-466): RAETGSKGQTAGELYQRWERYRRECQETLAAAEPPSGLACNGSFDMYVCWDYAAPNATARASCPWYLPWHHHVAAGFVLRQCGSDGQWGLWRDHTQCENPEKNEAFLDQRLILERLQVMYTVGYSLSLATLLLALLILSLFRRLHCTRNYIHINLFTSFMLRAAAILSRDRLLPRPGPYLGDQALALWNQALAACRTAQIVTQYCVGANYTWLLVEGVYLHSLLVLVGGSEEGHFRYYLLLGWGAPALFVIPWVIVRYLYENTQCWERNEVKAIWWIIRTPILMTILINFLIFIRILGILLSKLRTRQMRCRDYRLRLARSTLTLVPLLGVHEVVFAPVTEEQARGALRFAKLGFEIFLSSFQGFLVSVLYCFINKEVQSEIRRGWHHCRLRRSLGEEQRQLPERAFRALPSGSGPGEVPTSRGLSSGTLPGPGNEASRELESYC
Description: as §1

[3] = target: human GLP-1R (glucagon-like peptide-1 receptor) (human, UniProt P43220 24-463); experiment: cell-based or functional assay
[4] = target: T3, human GIPR (glucose-dependent insulinotropic polypeptide receptor) (human, UniProt P48546 22-466); experiment: cell-based or functional assay
T3 sequence (looked up): T2 sequence (P48546 22-466)

[5] = target: T4, human GLP-2R (glucagon-like peptide-2 receptor) (human, UniProt O95838 1-553); experiment: cell-based or functional assay
T4 sequence (looked up): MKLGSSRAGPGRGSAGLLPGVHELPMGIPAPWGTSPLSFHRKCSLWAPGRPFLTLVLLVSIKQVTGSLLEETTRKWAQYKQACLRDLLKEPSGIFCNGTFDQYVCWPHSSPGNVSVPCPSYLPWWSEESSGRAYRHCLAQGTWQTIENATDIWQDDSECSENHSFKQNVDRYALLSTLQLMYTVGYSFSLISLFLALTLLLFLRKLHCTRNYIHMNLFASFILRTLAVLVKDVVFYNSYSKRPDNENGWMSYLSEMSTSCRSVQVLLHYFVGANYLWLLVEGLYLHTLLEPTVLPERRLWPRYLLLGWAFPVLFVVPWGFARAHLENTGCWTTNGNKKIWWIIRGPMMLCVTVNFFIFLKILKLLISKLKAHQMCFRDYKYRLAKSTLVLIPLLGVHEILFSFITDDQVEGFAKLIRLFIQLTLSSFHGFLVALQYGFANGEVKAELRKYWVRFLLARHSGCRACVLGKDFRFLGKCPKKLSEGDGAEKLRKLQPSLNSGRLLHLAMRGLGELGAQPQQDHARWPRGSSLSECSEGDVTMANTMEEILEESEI

T1 sequence (P43220 24-463): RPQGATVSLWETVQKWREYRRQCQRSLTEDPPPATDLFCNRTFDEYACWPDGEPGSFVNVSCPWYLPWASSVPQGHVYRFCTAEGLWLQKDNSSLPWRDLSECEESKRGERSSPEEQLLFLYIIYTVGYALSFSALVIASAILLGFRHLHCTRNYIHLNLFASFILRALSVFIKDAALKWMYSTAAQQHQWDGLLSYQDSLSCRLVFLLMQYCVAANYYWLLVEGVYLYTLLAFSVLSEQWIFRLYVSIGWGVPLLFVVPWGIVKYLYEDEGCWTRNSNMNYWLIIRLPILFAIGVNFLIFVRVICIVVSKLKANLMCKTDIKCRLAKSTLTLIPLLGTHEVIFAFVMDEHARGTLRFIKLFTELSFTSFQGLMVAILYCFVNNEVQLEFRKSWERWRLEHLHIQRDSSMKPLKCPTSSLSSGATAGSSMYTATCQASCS

CCCCCCCCCC(=O)NCCCC[C@H](NC(=O)[C@@H](NC(=O)[C@@H](NC(=O)[C@H](CCCCN)NC(=O)[C@@H](NC(=O)[C@H](CCC(N)=O)NC(=O)[C@@H](NC(=O)[C@H](CC(C)C)NC(=O)[C@H](Cc1c[nH]c2ccccc12)NC(=O)[C@H](CC(N)=O)NC(=O)[C@@H](NC(=O)[C@H](Cc1ccccc1)NC(=O)[C@H](CCC(=O)O)NC(=O)[C@H](CCCNC(=N)N)NC(=O)[C@H](C)NC(=O)[C@H](C)NC(=O)[C@H](CC(C)C)NC(=O)[C@H](CC(N)=O)NC(=O)[C@H](CC(=O)O)NC(=O)[C@H](CC(C)C)NC(=O)[C@@H](NC(=O)[C@@H](NC(=O)[C@H](CO)NC(=O)[C@H](Cc1ccc(O)cc1)NC(=O)[C@H](CC(=O)O)NC(=O)[C@H](CO)NC(=O)[C@@H](NC(=O)[C@H](Cc1ccccc1)NC(=O)[C@@H](NC(=O)CNC(=O)[C@H](CC(=O)O)NC(=O)C(C)(C)NC(=O)[C@@H](N)Cc1c[nH]cn1)[C@@H](C)O)[C@@H](C)CC)[C@@H](C)O)[C@@H](C)CC)[C@@H](C)CC)[C@@H](C)CC)[C@@H](C)O)[C@@H](C)CC)[C@@H](C)O)C(N)=O [Compound 8] (H-H[Aib]DGTFISDYSTILDNLAAREFINWLIQTKITK(Decanoyl)-NH2; N-terminus assumed) showed an Emax [1] of 98%, an Emax ([2]; COS-7, normalized to highest concentration of the endogenous ligand, read-out: Efficacy GIPR (Emax)) of 99% and an EC50 ([2]; cAMP, COS-7 cells, human GIPR) of 1.12 nM.

B1: Compound 10 (peptide)
peptide: H[Aib]DGTFISDYSIILDNLAARDFINWLIQTKITK(Decanoyl)-NH2
In the case of B1, the “EC50 (nM) GLP-1R” value [3] is reported as 3.98 nM, the “Efficacy GLP-1R” value [3] is reported as 99 and the “logEC50 GLP-1R” value [3] is reported as 8.4. The “EC50 (nM) GIPR” value [4] was 0.501 nM, the “Efficacy GIPR” value [4] was 127 and the “pEC50 GIPR” value [4] was 9.3. For the same molecule, the “Efficacy GLP-2R” value [5] was 103 and the “logEC50 GLP-2R” value [5] was 8.

B2: Compound 5 (peptide)
peptide: H[Aib]DGTFISDYSTILDALAARDFINWLIQTKITK(Decanoyl)-NH2
modifications: N-terminus assumed
SMILES: CCCCCCCCCC(=O)NCCCC[C@H](NC(=O)[C@@H](NC(=O)[C@@H](NC(=O)[C@H](CCCCN)NC(=O)[C@@H](NC(=O)[C@H](CCC(N)=O)NC(=O)[C@@H](NC(=O)[C@H](CC(C)C)NC(=O)[C@H](Cc1c[nH]c2ccccc12)NC(=O)[C@H](CC(N)=O)NC(=O)[C@@H](NC(=O)[C@H](Cc1ccccc1)NC(=O)[C@H](CC(=O)O)NC(=O)[C@H](CCCNC(=N)N)NC(=O)[C@H](C)NC(=O)[C@H](C)NC(=O)[C@H](CC(C)C)NC(=O)[C@H](C)NC(=O)[C@H](CC(=O)O)NC(=O)[C@H](CC(C)C)NC(=O)[C@@H](NC(=O)[C@@H](NC(=O)[C@H](CO)NC(=O)[C@H](Cc1ccc(O)cc1)NC(=O)[C@H](CC(=O)O)NC(=O)[C@H](CO)NC(=O)[C@@H](NC(=O)[C@H](Cc1ccccc1)NC(=O)[C@@H](NC(=O)CNC(=O)[C@H](CC(=O)O)NC(=O)C(C)(C)NC(=O)[C@@H](N)Cc1c[nH]cn1)[C@@H](C)O)[C@@H](C)CC)[C@@H](C)O)[C@@H](C)CC)[C@@H](C)CC)[C@@H](C)CC)[C@@H](C)O)[C@@H](C)CC)[C@@H](C)O)C(N)=O
With B2 the “EC50 (nM) GLP-1R” value [3] was 1.78 nM, the “Efficacy GLP-1R” value [3] was 105 and the “logEC50 GLP-1R” value [3] was 8.8. The “EC50 (nM) GIPR” value [4] was 0.158 nM, the “Efficacy GIPR” value [4] was 111 and the “pEC50 GIPR” value [4] was 9.8. For the same molecule, the “Efficacy GLP-2R” value [5] was 110 and the “logEC50 GLP-2R” value [5] was 8.7.

B3: Compound 13 (peptide)
peptide: H[Aib]DGTFISDYSTELDNLAARDFINWLIQTKITK(Decanoyl)-NH2
modifications: N-terminus assumed
SMILES: CCCCCCCCCC(=O)NCCCC[C@H](NC(=O)[C@@H](NC(=O)[C@@H](NC(=O)[C@H](CCCCN)NC(=O)[C@@H](NC(=O)[C@H](CCC(N)=O)NC(=O)[C@@H](NC(=O)[C@H](CC(C)C)NC(=O)[C@H](Cc1c[nH]c2ccccc12)NC(=O)[C@H](CC(N)=O)NC(=O)[C@@H](NC(=O)[C@H](Cc1ccccc1)NC(=O)[C@H](CC(=O)O)NC(=O)[C@H](CCCNC(=N)N)NC(=O)[C@H](C)NC(=O)[C@H](C)NC(=O)[C@H](CC(C)C)NC(=O)[C@H](CC(N)=O)NC(=O)[C@H](CC(=O)O)NC(=O)[C@H](CC(C)C)NC(=O)[C@H](CCC(=O)O)NC(=O)[C@@H](NC(=O)[C@H](CO)NC(=O)[C@H](Cc1ccc(O)cc1)NC(=O)[C@H](CC(=O)O)NC(=O)[C@H](CO)NC(=O)[C@@H](NC(=O)[C@H](Cc1ccccc1)NC(=O)[C@@H](NC(=O)CNC(=O)[C@H](CC(=O)O)NC(=O)C(C)(C)NC(=O)[C@@H](N)Cc1c[nH]cn1)[C@@H](C)O)[C@@H](C)CC)[C@@H](C)O)[C@@H](C)CC)[C@@H](C)CC)[C@@H](C)O)[C@@H](C)CC)[C@@H](C)O)C(N)=O
For B3, the “EC50 (nM) GLP-1R” value [3] was 25.1 nM, the “Efficacy GLP-1R” value [3] was 85 and the “logEC50 GLP-1R” value [3] was 7.6. For the same molecule, the “EC50 (nM) GIPR” value [4] was 7.94 nM, the “Efficacy GIPR” value [4] was 117 and the “pEC50 GIPR” value [4] was 8.1. The “EC50 (nM) GLP-2R” value [5] was 25.1 nM, the “Efficacy GLP-2R” value [5] was 86 and the “logEC50 GLP-2R” value [5] was 7.6.

B4: Compound 9 (peptide)
peptide: HXDGTFISDYSTILDNLAARDFIEWLIQTKITK
modifications: Aib at position 2; K33 acylated with C10, K(C10); C-terminal amide (-NH2)
With B4 the “EC50 (nM) GLP-1R” value [3] was 5.62 nM, the “Efficacy GLP-1R” value [3] was 105 and the “logEC50 GLP-1R” value [3] was 8.3. The “EC50 (nM) GIPR” value [4] was 0.708 nM, the “Efficacy GIPR” value [4] was 104 and the “pEC50 GIPR” value [4] was 9.2. For the same molecule, the “Efficacy GLP-2R” value [5] was 108 and the “logEC50 GLP-2R” value [5] was 8.

B5: Compound 17 (peptide)
peptide: B4 peptide with E24N
modifications: Aib at position 2; K33 acylated with C10 via γGlu linker, K(γGlu-C10); C-terminal amide (-NH2)
In the case of B5, the “Efficacy GLP-1R” value [3] is reported as 107, the “Efficacy GIPR” value [4] is reported as 97 and the “Efficacy GLP-2R” value [5] is reported as 92.

B6: Compound 12 (peptide)
peptide: B4 peptide with I13X, E24N
modifications: Aib at positions 2 and 13; K33 acylated with C10, K(C10); C-terminal amide (-NH2)
In the case of B6, the “Efficacy GLP-1R” value [3] is reported as 76, the “Efficacy GIPR” value [4] is reported as 107 and the “Efficacy GLP-2R” value [5] is reported as 77.

B7: Compound 16 (peptide)
peptide: Y[Aib]DGTFISDYSTILDNLAARDFINWLIQTKITK(Decanoyl)-NH2
modifications: N-terminus assumed
SMILES: CCCCCCCCCC(=O)NCCCC[C@H](NC(=O)[C@@H](NC(=O)[C@@H](NC(=O)[C@H](CCCCN)NC(=O)[C@@H](NC(=O)[C@H](CCC(N)=O)NC(=O)[C@@H](NC(=O)[C@H](CC(C)C)NC(=O)[C@H](Cc1c[nH]c2ccccc12)NC(=O)[C@H](CC(N)=O)NC(=O)[C@@H](NC(=O)[C@H](Cc1ccccc1)NC(=O)[C@H](CC(=O)O)NC(=O)[C@H](CCCNC(=N)N)NC(=O)[C@H](C)NC(=O)[C@H](C)NC(=O)[C@H](CC(C)C)NC(=O)[C@H](CC(N)=O)NC(=O)[C@H](CC(=O)O)NC(=O)[C@H](CC(C)C)NC(=O)[C@@H](NC(=O)[C@@H](NC(=O)[C@H](CO)NC(=O)[C@H](Cc1ccc(O)cc1)NC(=O)[C@H](CC(=O)O)NC(=O)[C@H](CO)NC(=O)[C@@H](NC(=O)[C@H](Cc1ccccc1)NC(=O)[C@@H](NC(=O)CNC(=O)[C@H](CC(=O)O)NC(=O)C(C)(C)NC(=O)[C@@H](N)Cc1ccc(O)cc1)[C@@H](C)O)[C@@H](C)CC)[C@@H](C)O)[C@@H](C)CC)[C@@H](C)CC)[C@@H](C)CC)[C@@H](C)O)[C@@H](C)CC)[C@@H](C)O)C(N)=O
With B7 the “EC50 (nM) GLP-1R” value [3] was 56.2 nM, the “Efficacy GLP-1R” value [3] was 59 and the “logEC50 GLP-1R” value [3] was 7.3. For the same molecule, the “EC50 (nM) GIPR” value [4] was 1 nM, the “Efficacy GIPR” value [4] was 99 and the “pEC50 GIPR” value [4] was 9. For the same molecule, the “EC50 (nM) GLP-2R” value [5] was 8.9 nM, the “Efficacy GLP-2R” value [5] was 93 and the “logEC50 GLP-2R” value [5] was 8.1.

B8: Compound 11 (peptide)
peptide: H[Aib]EGTFISDYSTILDNLAARDFINWLIQTKITK(Decanoyl)-NH2
For B8, the “EC50 (nM) GLP-1R” value [3] was 39.8 nM, the “Efficacy GLP-1R” value [3] was 76 and the “logEC50 GLP-1R” value [3] was 7.4. For the same molecule, the “EC50 (nM) GIPR” value [4] was 13.6 nM, the “Efficacy GIPR” value [4] was 89 and the “pEC50 GIPR” value [4] was 7.9. For the same molecule, the “EC50 (nM) GLP-2R” value [5] was 25.1 nM, the “Efficacy GLP-2R” value [5] was 68 and the “logEC50 GLP-2R” value [5] was 7.6.
